Columns and labels:
[1] = test system: rat epididymal adipocytes; experiment: Lipolytic activity in rat adipocytes; assay type: cell-based; conditions: concentrations between 233 and 700 nM
Procedure: Lipolytic Activity in Rat Adipocytes—White adipocytes were prepared from finely minced epididymal adipose tissue of male Wistar rats (400 g) using collagenase digestion, as described (Beck S A, et al. Production of lipolytic and proteolytic factors by a murine tumor-producing cachexia in the host. Cancer Res 47:5919-5923, 1987). Lipolytic activity was determined by incubating 10^5-2×10^5 adipocytes for 2 h in 1 ml Krebs-Ringer bicarbonate buffer, pH 7.2, and the extent of lipolysis was determined by measuring the glycerol released (Wieland O. Glycerol UV method. Methods of Enzymatic Analysis, edited by Bergmeyer H U. Academic Press, London, pp 1404-1409, 1974). Spontaneous glycerol release was measured by incubating adipocytes alone. Lipolytic activity was expressed as μmol glycerol released/10^5 adipocytes/2 h.

human β2-AR = molecular target: T1, human β2-AR (Homo sapiens, UniProt P07550); experiment: Cyclic AMP production in CHO-K1 cells transfected with β2-AR; assay type: cell-based; conditions: CHO-K1 β2-AR
T1 construct: host or cells: CHO-K1
Procedure: Binding Studies and Cyclic AMP Determination. CHO-K1 cells transfected with the human β1- and β2-AR obtained from University of Nottingham, UK, while CHOK1 cells transfected with the β3-AR were obtained from Astra Zeneca, Macclesfield, Cheshire, UK. Gene expression was under the control of hygromycin, together with a β-gal reporter construct, selected for resistance to G418. They were maintained in DMEM supplemented with 2 mM glutamine, hygromycin B ([…]), G418 ([…]), and 10% FCS, under an atmosphere of 10% CO2 in air. To determine the effect of agonists on cyclic AMP production, cells were grown in 24-well plates containing 1 ml of nutrient medium.

murine myotubes = experiment: Murine myotubes subjected to high glucose: protein degradation, protein synthesis, ROS, pPKR; assay type: cell-based, mouse
Procedure: This utilizes murine myotubes subjected to high concentrations of glucose (10 or 25 mM). […] However the SR compound (i.e., SR59230A) can also act as a β-agonist, which it seemed to do in these experiments.
It has been shown that formation of reactive oxygen species (ROS) is important in protein degradation induced by high glucose load. […] High glucose also induces activation (phosphorylation) of PKR (FIG. 22A) and the subsequent phosphorylation of eIF2α (FIG. 22B) as is seen in skeletal muscle of ob/ob mice, which was also attenuated by ZAG.

ob/ob mice = experiment: Insulin tolerance test in ob/ob mice administered ZAG for 3 days; assay type: in vivo, mouse
Procedure: An insulin tolerance test was also carried out in ob/ob mice administered ZAG for 3 days (FIG. 23). Animals were administered two doses of insulin (10 and 20 U/kg) by i.p. injection and blood glucose was measured over the next 60 min. […] The glucose disappearance curve for 20 U/kg+PBS was almost identical to 10 U/kg+ZAG, so at this dose level ZAG is reducing the requirement for insulin by 50%, but this can be overcome by giving more insulin.

[2] = test system: WAT, BAT and gastrocnemius muscle of male Wistar rats; experiment: Western blots of tissues from rats treated with ZAG; assay type: in vivo, rat
Procedure: Samples of epididymal WAT, BAT and gastrocnemius muscle excised from rats treated with ZAG or PBS for 5 days were homogenized in 0.25M sucrose, 1 mM HEPES, pH 7.0 and […], and then centrifuged for 10 min at 4,500 rpm. Samples of cytosolic protein (10 μg) were resolved on 12% sodium dodecylsulphate polyacrylamide gel electrophoresis and the proteins were then transferred onto 0.45 μm nitrocellulose membranes, which had been blocked with 5% Marvel in Tris-buffered saline, pH 7.5, at 4° C. overnight, and following four 15 min washes with 0.1% Tween in PBS, incubation with the secondary antibody was performed for 1 h at room temperature. Development was by ECL.

β3-AR = β3-AR (Homo sapiens, UniProt P13945); experiment: [125I] ZAG binding to crude membranes of CHO-K1 β3 cells; parameters: host or cells: CHO-K1
Chain of β3-AR (P13945 whole entry): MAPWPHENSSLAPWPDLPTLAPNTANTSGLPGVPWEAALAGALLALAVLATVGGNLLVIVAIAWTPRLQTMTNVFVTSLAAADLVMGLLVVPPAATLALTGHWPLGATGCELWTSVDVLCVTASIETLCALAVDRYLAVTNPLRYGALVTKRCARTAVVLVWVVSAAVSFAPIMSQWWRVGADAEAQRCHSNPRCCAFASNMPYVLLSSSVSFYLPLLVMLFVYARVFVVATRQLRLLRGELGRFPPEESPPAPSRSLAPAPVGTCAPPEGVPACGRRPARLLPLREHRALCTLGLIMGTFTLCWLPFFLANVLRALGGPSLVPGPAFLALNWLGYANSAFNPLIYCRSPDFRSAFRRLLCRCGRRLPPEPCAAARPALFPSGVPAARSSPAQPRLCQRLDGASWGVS
Procedure: [^125I] labelling of ZAG. One iodo bead that had been washed and dried was incubated with Na [^125I] (1 mCi per 100 μg protein) for 5 min in PBS, then ZAG (100 μg protein) was added and left for a further 15 min. The reaction was terminated by removal of the iodo bead, while free Na [^125I] was removed using a Sephadex G25 column eluted with 0.1MNaI. The [^125I] ZAG was concentrated against PBS using a Microcon microconcentrator with a filter cut-off of Mr 10,000. The specific activity of the [^125I] ZAG was 8 Cimg protein^1.
For binding studies cells were sonicated in 2 mM Tris HCl, pH7.5, containing […] and crude total membranes were pelleted by centrifugation (13,000 g; 15 min) at 4° C. Binding studies were carried out at 37° C. by incubating membranes (500 μg protein) in 0.4 ml 50 mM Tris HCl, pH 7.5, containing 0.5 mM MgCl2 for 60 min with various concentrations of [^125I] ZAG (3,000 to 15,000 cpm) in the absence or presence of 100 μM non-labelled ZAG. The membranes were then precipitated by centrifugation at 13000 g for 20 min, the supernatant was removed and the [^125I] bound to the pellet was quantitated using a Packard Corbra Model 5005 Auto-gamma counter. Binding was analysed using non-linear regression analysis (GraphPad Prism, Version 5.04). Specific binding was regarded as the amount of labelled ZAG displaced by non-radioactive ZAG.

[3] = 10 or 25 mM glucose, ZAG 25 μg/ml

B1: ZAG: recombinant full length human zinc-α2-glycoprotein (SEQ ID NO: 1) secreted by transfected HEK293F cells; lipid mobilizing factor (protein, listed as Homo sapiens)
chain: QENQDGRYSLTYIYTGLSKHVEDVPAFQALGSLNDLQFFRYNSKDRKSQPMGLWRQVEGMEDWKEDSQLQKAREDMETLKDIVEYYNDSNGSHVLQGRFGCEIENNRSSGAFWKYYYDGKDYIEFNKEIPAWVPFDPAAQITKQKWEAEPVYVQRAKAYLEEECPATLRKYLKYSKNILDRQDPPSVVVTSHQAPGEKKKLKCLAYDFYPGKIDVHWTRAGQVQEPELRGDVLHNGNGTYQSWVVVAVPPQDTAPYSCHVQHSSLAQPLVVPWEAS
- glycerol release from rat epididymal adipocytes [1]: dose-related increase in glycerol release
- concentration required to stimulate cyclic AMP production (human β2-AR): 580 nM
- effect on depression of protein synthesis by high glucose (murine myotubes; [3]): completely attenuated
- effect on protein degradation stimulated by high glucose (murine myotubes; [3]): completely attenuated
- effect on glucose-induced phosphorylation of PKR and eIF2α (murine myotubes; myotubes): attenuated
- effect on increase in ROS produced by glucose (murine myotubes; myotubes): completely attenuates
- reduction of the requirement for insulin (ob/ob mice; 10 U/kg insulin+ZAG vs 20 U/kg+PBS): 50%
- sensitivity to insulin (ob/ob mice; insulin 10 U/kg i.p.): increased sensitivity to insulin
- expression of ATGL and HSL in epididymal adipose tissue ([2]; rats): two-fold increase
- expression of UCP-1 and -3 in BAT and WAT ([2]; rats): almost two-fold
- phosphorylated forms of PKR and eIF2 α-subunit in gastrocnemius muscle ([2]; rats): significant reduction
- expression of ZAG in skeletal muscle, WAT and BAT ([2]; rats treated for 10 days): significantly increased
- Bmax at β3-AR relative to β2-AR (β3-AR): about three times
- Kd at β3-AR, fold lower than that of CGP12177 (β3-AR): about 100 fold
- effect of freeze-thawing on binding to β3-AR (β3-AR; single freeze/thaw cycle): eliminated binding
